According to patent US20230374147A1 (HUMMINGBIRD BIOSCIENCE PTE, published 2023):
Residue numbers refer to the chain shown, from its start.

T1: human BCMA expressed on cells (human, UniProt Q02223 1-184)
T1 construct: the cell line is named under assay; also called wildtype human BCMA
T1 sequence: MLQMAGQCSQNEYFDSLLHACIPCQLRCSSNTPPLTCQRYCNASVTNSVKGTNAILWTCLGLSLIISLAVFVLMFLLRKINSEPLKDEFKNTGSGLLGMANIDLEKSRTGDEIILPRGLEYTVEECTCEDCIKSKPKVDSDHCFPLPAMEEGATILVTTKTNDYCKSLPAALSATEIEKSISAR

T2: Cyno TACI-His (Sino Biological, 90976-C08H) (cynomolgus macaque, UniProt G7PTR7 1-165)
T2 construct: Bought protein; also called cynomolgous macaque TACI; CyTACI
T2 sequence: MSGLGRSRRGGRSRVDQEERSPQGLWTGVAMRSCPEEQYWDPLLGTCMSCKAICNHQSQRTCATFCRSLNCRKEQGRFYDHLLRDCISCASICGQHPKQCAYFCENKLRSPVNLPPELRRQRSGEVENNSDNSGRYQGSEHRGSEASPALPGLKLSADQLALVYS

T3: His-tagged human BCMA (Acro Biosystems, Cat. #BCA-H522y) (human, UniProt Q02223 1-54)
T3 construct: also called huBCMA; P1; not shown: His tag
T3 sequence: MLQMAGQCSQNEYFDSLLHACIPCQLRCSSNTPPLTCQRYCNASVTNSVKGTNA

T4: His-tagged mouse BCMA (Acro Biosystems, BCA-M52H3) (mouse, UniProt O88472 1-49)
T4 construct: Bought protein; not shown: His tag
T4 chain: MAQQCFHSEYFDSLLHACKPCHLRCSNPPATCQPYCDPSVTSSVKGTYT

T5: recombinant his-tagged human TACI (Sinobiological cat #11937-H08H) (human, UniProt O14836 1-165)
T5 construct: Bought protein; also called Human TACI-His; huTACI; not shown: His tag
T5 sequence: T2 sequence with S21F, A52T, T64A, N70S, R77K, S139L, L160V

T6: Human BCMA-His (Sino Biological, 10620-H08H) (human, UniProt Q02223 1-54)
T6 construct: not shown: His tag
T6 sequence: T3 sequence

B1: 538-SP5-B10 (antibody produced by the hybridoma) (antibody, V domains shown)
VH: EVQLQQSGPELVKPGASVKMSCKASGYTFTSYVMHWVKQKPGRGLEWIAYILPFNDVTKYNEKFKGKATLTSDKSSNTAYMELSSLTSEDSAVYYCARWEWDDGYFDYWGQGTTLTVSS
VL: DAVMTQTPLSLPVSLGDQASISCRSSQSLENSNGNTYLNWYLQKPGQSPQLLIYRVSNRFSGVLDRFSGSGSGTDFTLKISRVEAEDLGVYFCLQVSHVPFTFGAGTKLELK
notes: Mouse antibody from B cell hybridoma (culture supernatant or IgG purified from it)
B2: 539-SP7-F4 (antibody produced by the hybridoma) (antibody, V domains shown)
VH: EVQLQQSGPELVKPGASMKISCKASGYSFTGYIMNWVKQSHGKNLEWIGLINPYNGDSIYNQKFKGKATLTVDKSSSTAYMELFSLTSEDSTVYYCAAGEEFAYWGQGTLVTVSA
VL: DIQMTQTSSSLSASLGDRVTISCRASQDISIYLNWFQQKPDGTVKLLIYFTSRLHPGVPSRFSASGSGTDYSLTISHLEHEDIATYFCQQGNTLPRTFGGGTKVELK
notes: as for B1
B3: 539-SP1-C8 (antibody produced by the hybridoma) (antibody, V domains shown)
VH: EVQLQQSGPELVKPGSSVKMSCKASGYTFTNYVMHWVKQKPGQGLEWIGYILPYNDGTKYNEKFKGKATLTSDKSSSTAYMEFSVLTSEDSAVYYCARYDYEGSFDYWGQGTALTVSS
VL: DIQMTQTTSSLSASLGDRVTISCRASQDISNYLNWYQQKPDGTVKLLMCYTSRLHSGVPSRFSGSGSGTDFSLTISNLEQEDIATYFCQQGNTFPPTFGGGTKLEIK
notes: as for B1
B4: 1C8-402 hIgG1 (antibody)
heavy: not shown
light: DIQMTQSPSSLSASVGDRVTITCRASQDISNYLSWYQQKPGKAPKLLMRYTSRLHSGVPSRFSGSGSGTDFTLTISSLEQEDFATYYCQQGNLFPPTFGGGTKVEIKRTVAAPSVFIFPPSDEQLKSGTASVVCLLNNFYPREAKVQWKVDNALQSGNSQESVTEQDSKDSTYSLSSTLTLSKADYEKHKVYACEVTHQGLSSPVTKSFNRGEC
notes: also called [90]
B5: 1C8-610 hIgG1 (antibody, V domains shown)
VH: QVQLVQSGAEVKKPGASVKVSCKASGYTFTNYVMFWVKQKPGQGLEWMGYITPYNDGTKYAQKFQGKVTMTSDKSTSTVYMELSSLTSEDTAVYYCARYDYEGSFDYWGQGTLVTVSS
VL: DIQMTQSPSSLSASVGDRVTITCRASQDISNYLNWYQQKPGKAPKLLMRYTSRFHSGVPSRFSGSGSGTDFTLTISSLEQEDFATYYCQQGNTFPPTSGGGTKVEIKR
notes: also called [93]; hu1C8-610
B6: 1C8-403 hIgG1 (antibody, V domains shown)
VH: B5 VH with F35H, T52L, Y101W
VL: B5 VL with Q27S, R49C, F54L, S98F
notes: also called [91]; hu1C8-403
B7: 1C8-507 hIgG1 (antibody, V domains shown)
VH: B5 VH with T30R, F35H, Y50W, T52L
VL: B5 VL with R53L, F54L, S98F
notes: also called [92]; hu1C8-507
B8: 1C8-25 hIgG1 (antibody, V domains shown)
VH: QVQLVQSGAEVKKPGASVKVSCKASGYTFTNYVMHWVRQAPGQRLEWMGYILPYNDGTKYSQKFQGRVTITRDTSASTAYMELSSLRSEDTAVYYCARYDWEGSFDYWGQGTTVTVSS
VL: B5 VL with S30G, P44V, F54L, E79Q, Q80P, N92F, S98F, V104L
notes: also called [95]

molecular target: T1, human BCMA expressed on cells; experiment: flow cytometry, hybridoma supernatant, HEK293T cells stably expressing human BCMA

| Binder | % Parent (percent positive cells) [%] |
| --- | --- |
| B1 | 70.8 |
| B2 | 63.8 |
| B3 | 56.5 |

molecular target: T2, Cyno TACI-His (Sino Biological, …); experiment: BLI, IgG on HFC tip, His-tagged cynomolgus TACI 300-37.5 nM

| Binder | Kd [µM] | koff [s⁻¹] | kon [M⁻¹ s⁻¹] |
| --- | --- | --- | --- |
| B4 | 0.00259 | 0.00186 | 718000 |
| B5 | 0.00125 | 0.000839 | 673000 |

molecular target: T3, His-tagged human BCMA (Acro Biosystems, …); experiment: ELISA, IgG purified from hybridoma supernatant, coated His-tagged antigen

| Binder | EC50 [µg/mL] |
| --- | --- |
| B1 | 0.0358 |
| B2 | 0.0182 |
| B3 | 0.0299 |

Molecular target: T4, His-tagged mouse BCMA (Acro Biosystems, …)
Experiment: as above

| Binder | EC50 [µg/mL] |
| --- | --- |
| B1 | 21 |
| B2 | 14.6 |
| B3 | 9.19 |

molecular target: T5, recombinant his-tagged human TACI …; experiment: BLI, IgG on HFC tip, His-tagged human TACI 300-37.5 nM

| Binder | Kd [µM] | koff [s⁻¹] | kon [M⁻¹ s⁻¹] |
| --- | --- | --- | --- |
| B4 | 0.0702 | 0.0576 | 821000 |
| B6 | 1100 | 0.131 | 118 |
| B7 | 0.61 | 0.163 | 267000 |
| B5 | 0.0208 | 0.0205 | 988000 |

molecular target: T5, recombinant his-tagged human TACI …; experiment: ELISA, coated Human TACI-His

| Binder | EC50 [nM] |
| --- | --- |
| B4 | 0.02 |
| B6 | 0.051 |
| B7 | 0.021 |
| B5 | 0.01 |

molecular target: T7, His-tagged cynomolgous macaque BCMA (Acro Biosystems, BCA-C52H7) (cynomolgus macaque, UniProt Q02223 1-54 (human entry)); experiment: BLI, IgG on HFC tip, His-tagged cynomolgus BCMA 300-37.5 nM
T7 construct: Bought protein; also called cyno BCMA; CyBCMA; not shown: His tag

| Binder | Kd [µM] | koff [s⁻¹] | kon [M⁻¹ s⁻¹] |
| --- | --- | --- | --- |
| B4 | 0.0024 | 0.00272 | 1.13e+06 |
| B6 | 0.00654 | 0.00917 | 1.4e+06 |
| B7 | 0.0217 | 0.0354 | 1.63e+06 |
| B5 | 0.0228 | 0.0291 | 1.28e+06 |

molecular target: T1, human BCMA expressed on cells; experiment: flow cytometry, H929 cells (BCMA+)

| Binder | EC50 [nM] |
| --- | --- |
| B4 | 0.128 |
| B6 | 0.134 |
| B7 | 0.095 |
| B5 | 0.0677 |

molecular target: T6, Human BCMA-His (Sino Biological, …); experiment: ELISA, coated Human BCMA-His

| Binder | EC50 [nM] |
| --- | --- |
| B4 | 0.11 |
| B6 | 0.062 |
| B7 | 0.087 |
| B5 | 0.01 |

molecular target: T2, Cyno TACI-His (Sino Biological, …); experiment: ELISA, coated Cyno TACI-His

| Binder | EC50 [pM] |
| --- | --- |
| B4 | 4 |
| B6 | 34 |
| B7 | 11 |
| B5 | 7 |

molecular target: T3, His-tagged human BCMA (Acro Biosystems, …); experiment: ELISA, hybridoma supernatant, coated His-tagged antigen

| Binder | ELISA values (OD 450 nm) [OD] |
| --- | --- |
| B1 | 0.812 |
| B2 | 0.893 |
| B3 | 0.686 |

molecular target: T7, His-tagged cynomolgous macaque BCMA …; experiment: as above

| Binder | ELISA values (OD 450 nm) [OD] |
| --- | --- |
| B1 | 2.44 |
| B2 | 2.35 |
| B3 | 2.04 |

Molecular target: T4, His-tagged mouse BCMA (Acro Biosystems, …)
Experiment: as above

| Binder | ELISA values (OD 450 nm) [OD] |
| --- | --- |
| B1 | 0.247 |
| B2 | 0.318 |
| B3 | 0.339 |

molecular target: T8, Human HER3-His (Sino Biological, 10201-H08H) (human, UniProt P21860 20-643); experiment: ELISA, coated His-tagged antigen
T8 construct: Specificity control; also called Human HERS-His

| Binder | binding result |
| --- | --- |
| B4 | no binding (tested: 3 µg/ml (highest concentration)) |
| B6 | no binding (tested: 3 µg/ml (highest concentration)) |
| B7 | no binding (tested: 3 µg/ml (highest concentration)) |
| B5 | no binding (tested: 3 µg/ml (highest concentration)) |

molecular target: T3, His-tagged human BCMA (Acro Biosystems, …); experiment: BLI, IgG on HFC tip, His-tagged human BCMA 300-37.5 nM

| Binder | Kd [µM] | koff [s⁻¹] | kon [M⁻¹ s⁻¹] |
| --- | --- | --- | --- |
| B4 | 0.000791 | 0.00312 | 3.95e+06 |
| B6 | 0.0586 | 0.00288 | 49200 |
| B7 | 0.0591 | 0.00172 | 29200 |
| B5 | 0.00065 | 0.00307 | 4.71e+06 |

molecular target: T3, His-tagged human BCMA (Acro Biosystems, …); experiment: BLI (Gator), antibody loaded on HFC biosensor, His-tagged antigen as analyte

| Binder | binding result |
| --- | --- |
| B8 | binds |

molecular target: T5, recombinant his-tagged human TACI …; experiment: as above

| Binder | binding result |
| --- | --- |
| B8 | binds |

molecular target: T7, His-tagged cynomolgous macaque BCMA …; experiment: as above

| Binder | binding result |
| --- | --- |
| B8 | binds |

molecular target: T7, His-tagged cynomolgous macaque BCMA …; experiment: ELISA, coated Cyno BCMA-His

| Binder | EC50 [nM] |
| --- | --- |
| B4 | 0.002 |
| B6 | 0.016 |
| B7 | 0.038 |
| B5 | 0.089 |

molecular target: T1, human BCMA expressed on cells; experiment: flow cytometry, fixed RPMI 8226 cells (BCMA+, TACI+: the cells carry both targets)

| Binder | EC50 [µM] |
| --- | --- |
| B4 | 0.000136 |
| B6 | 0.000172 |
| B7 | 0.000136 |
| B5 | 0.000134 |
